In patent publication US12194076B2, “Methods and compositions for treating myelofibrosis” (Acceleron Pharma Inc., priority 2016, dated 2025):
Where a chain is given by its changes, count along the chain named. Names and notes keep the numbering of the source.

Columns and labels:
Activin A [1] = biological target: T1, Activin A (Homo sapiens, UniProt P08476); experiment: Biacore steady-state affinity of ActRIIB-hFc proteins for activin A; type: binding; details: compared to counterparts lacking the L79D substitution
T1 sequence (P08476 311-426): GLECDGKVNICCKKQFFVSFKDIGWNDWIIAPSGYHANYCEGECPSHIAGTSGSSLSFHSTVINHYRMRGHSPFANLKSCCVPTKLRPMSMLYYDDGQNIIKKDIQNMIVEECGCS
Description: (§1) Affinities of several ligands for ActRIIB(25-131)-hFc and its full-length counterpart ActRIIB(20-134)-hFc were evaluated in vitro with a Biacore™ instrument, and the results are summarized in the table below. Kd values were obtained by steady-state affinity fit due to very rapid association and dissociation of the complex, which prevented accurate determination of kon and koff. ActRIIB(25-131)-hFc bound activin A, activin B, and GDF11 with high affinity.
(§2) The affinity of GDF traps and other ActRIIB-hFc proteins for several ligands was evaluated in vitro with a Biacore™ instrument. Kd values were obtained by steady-state affinity fit due to the very rapid association and dissociation of the complex, which prevented accurate determination of kon and koff.

BMP6 = biological target: T2, BMP6 (Homo sapiens, UniProt P22004); experiment: Biacore ligand binding of GDF trap, BMP6
T2 sequence (P22004 375-513): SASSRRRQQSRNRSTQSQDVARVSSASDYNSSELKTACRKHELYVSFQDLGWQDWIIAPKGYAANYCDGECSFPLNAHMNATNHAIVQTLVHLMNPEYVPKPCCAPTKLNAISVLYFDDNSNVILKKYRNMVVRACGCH
Description: as §2

GDF8 [2] = biological target: T3, GDF8 (Homo sapiens, UniProt O14793); experiment: Biacore ligand binding of GDF trap, GDF8
T3 sequence (O14793 267-375): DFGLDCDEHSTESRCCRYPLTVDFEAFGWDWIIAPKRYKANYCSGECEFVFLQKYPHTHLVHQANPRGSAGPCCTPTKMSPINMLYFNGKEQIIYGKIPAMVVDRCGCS
Description: as §2

BMP10 = biological target: T4, BMP10 (Homo sapiens, UniProt O95393); experiment: Biacore ligand binding of GDF trap, BMP10
T4 sequence (O95393 317-424): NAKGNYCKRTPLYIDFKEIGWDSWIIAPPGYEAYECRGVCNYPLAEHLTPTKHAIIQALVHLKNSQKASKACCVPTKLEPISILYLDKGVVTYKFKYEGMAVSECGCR
Description: as §2

GDF11 [3] = biological target: T5, GDF11 (Homo sapiens, UniProt O95390); experiment: Biacore steady-state affinity of ActRIIB-hFc proteins for GDF11; type: binding; details: compared to counterparts lacking the L79D substitution
T5 sequence (O95390 299-407): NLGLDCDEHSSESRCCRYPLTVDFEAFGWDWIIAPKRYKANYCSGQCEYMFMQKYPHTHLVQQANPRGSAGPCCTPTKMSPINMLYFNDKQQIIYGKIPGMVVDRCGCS
Description: as §1, §2

Activin B = biological target: T6, Activin B (Homo sapiens, UniProt P09529); experiment: Biacore steady-state affinity of ActRIIB-hFc proteins for activin B; type: binding; details: compared to counterparts lacking the L79D substitution
T6 sequence (P09529 293-407): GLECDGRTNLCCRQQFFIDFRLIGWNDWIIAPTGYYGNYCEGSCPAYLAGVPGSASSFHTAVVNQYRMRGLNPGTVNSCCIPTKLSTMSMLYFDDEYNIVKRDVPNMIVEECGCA
Description: as §1, §2

[4] = test system: anemic myelofibrosis patients; details: cited from earlier work
activin [5] = details: see U.S. Pat. No. 7,842,663; cited from earlier work
GDF11 [6] = biological target: T5, GDF11; details: see U.S. Pat. No. 7,842,663; cited from earlier work
Serum half-life in rats = type: in vivo
Description: Several variants have been assessed for serum half-life in rats. ActRIIB(20-134)-Fc has a serum half-life of approximately 70 hours. […] Any of the variants tested above, may be combined with the GDF trap molecules.

activin [7] = experiment: Affinity/binding of ActRIIB-Fc fusion proteins for activin; details: ActRIIB-Fc fusion protein, position 64 variant
GDF11 [8] = biological target: T5, GDF11; experiment: Affinity/binding of ActRIIB-Fc fusion proteins for GDF11; details: ActRIIB-Fc fusion protein, position 64 variant
GDF11 [9] = biological target: T5, GDF11; experiment: A-204 reporter gene assay, inhibition of GDF-11 signaling; type: cell-based; design: host or cells: added to A-204 cells (human rhabdomyosarcoma)
Excerpt: (§3) An A-204 reporter gene assay was used to evaluate the effects of ActRIIB-Fc proteins and GDF traps on signaling by GDF-11 and activin A. Cell line: human rhabdomyosarcoma (derived from muscle). Reporter vector: pGL3(CAGA)12 (described in Dennler et al, 1998, EMBO 17: 3091-3100). The CAGA12 motif is present in TGF-beta responsive genes (e.g., PAI-1 gene), so this vector is of general use for factors signaling through SMAD2 and 3.
(§4) Day 1: Split A-204 cells into 48-well plate.
(§5) Day 2: A-204 cells transfected with 10 ug pGL3(CAGA)12 or pGL3(CAGA)12(10 ug)+pRLCMV (1 μg) and Fugene.
(§6) Day 3: Add factors (diluted into medium+0.1% BSA). Inhibitors need to be preincubated with factors for 1 hr before adding to cells. Six hrs later, cells were rinsed with PBS and lysed.
(§7) This is followed by a luciferase assay.
(§8) Activity of ActRIIB-Fc proteins and GDF traps was tested in a cell-based assay as described above. Some variants were tested in different C-terminal truncation constructs. As discussed above, truncations of five or fifteen amino acids caused reduction in activity.

GDF11 [10] = biological target: T5, GDF11; experiment: Biacore assay, receptor captured with anti-hFc antibody, GDF11 injected; type: binding; details: receptor captured via anti-hFc antibody
Description: (§9) Binding of certain ActRIIB-Fc proteins and GDF traps to ligands was tested in a Biacore™ assay.
(§10) The ActRIIB-Fc variants or wild-type protein were captured onto the system using an anti-hFc antibody. Ligands were injected and flowed over the captured receptor proteins.

GDF8 [11] = biological target: T3, GDF8; experiment: Biacore assay, receptor captured with anti-hFc antibody, GDF8 injected; type: binding; details: receptor captured via anti-hFc antibody
Description: as §9, §10

GDF8 [12] = biological target: T3, GDF8; experiment: A-204 reporter gene assay, inhibition of GDF-8 activity; type: cell-based; design: host or cells: added to A-204 cells (human rhabdomyosarcoma)
Activin A [13] = biological target: T1, Activin A; experiment: Biacore assay, receptor captured with anti-hFc antibody, activin A injected; type: binding; details: receptor captured via anti-hFc antibody
Description: as §9, §10

Activin A [14] = biological target: T1, Activin A; experiment: A-204 reporter gene assay, inhibition of activin A signaling; type: cell-based; design: host or cells: added to A-204 cells (human rhabdomyosarcoma)
Excerpt: as §3, §4, §5, §6, §7, §8

GDF11 [15] = biological target: T5, GDF11; details: ligand coupled to the device; reproduced from WO2006/012627; cited from earlier work

Molecule: ActRIIB(L79D 25-131)-hFc: GDF trap with truncated ActRIIB extracellular domain (residues 25-131, L79D) fused to human Fc, SEQ ID NO: 50, 53
- activin A binding, in words (Activin A [1]): pronounced loss
- binding to BMP6, in words (BMP6): strong to intermediate
- binding to GDF8, in words (GDF8 [2]): strong to intermediate
- binding to BMP10, in words (BMP10): strong to intermediate
- GDF11 binding, in words (GDF11 [3]): nearly full retention
- activin B binding, in words (Activin B): partial loss

Molecule: C#C[C@]1(O)CC[C@H]2[C@@H]3CCC4=Cc5oncc5C[C@]4(C)[C@H]3CC[C@@]21C [danazol]
- anemia response rate [4]: around 20%

B1: ActRIIB(20-119)-Fc: ActRIIB-Fc fusion protein containing amino acids 20-119 of SEQ ID NO: 1 (protein)
chain: GRGEAETRECIYYNANWELERTNQSGLERCEGEQDKRLHCYASWRNSSGTIELVKKGCWLDDFNCYDRQECVATEENPQVYFCCCEGNFCNERFTHLPEA
modifications: Fc fusion, Fc no entry
- binding to activin relative to ActRIIB(20-134)-Fc (activin [5]): reduced
- binding to GDF11 relative to ActRIIB(20-134)-Fc (GDF11 [6]): reduced

B2: ActRIIB(20-134)-Fc: ActRIIB-Fc fusion protein containing amino acids 20-134 of SEQ ID NO: 1 (protein)
chain: GRGEAETRECIYYNANWELERTNQSGLERCEGEQDKRLHCYASWRNSSGTIELVKKGCWLDDFNCYDRQECVATEENPQVYFCCCEGNFCNERFTHLPEAGGPEVTYEPPPTAPT
modifications: Fc fusion partner without entry
- serum half-life (Serum half-life in rats): approximately 70 hours

B3: A64 20-134: ActRIIB-Fc fusion protein, residues 20-134, alanine at position 64 (protein)
chain: B2 chain with R45A
modifications: Fc fusion partner without entry
- affinity for activin, in words (activin [7]): relatively low affinity
- affinity for GDF11, in words (GDF11 [8]): relatively low affinity

B4: ActRIIB(20-134)-hFc: extracellular domain of human ActRIIB (20-134, R64) fused to human Fc with three-glycine linker, SEQ ID NO: 24 (protein)
chain: GRGEAETRECIYYNANWELERTNQSGLERCEGEQDKRLHCYASWRNSSGTIELVKKGCWLDDFNCYDRQECVATEENPQVYFCCCEGNFCNERFTHLPEAGGPEVTYEPPPTAPTGGGTHTCPPCPAPELLGGPSVFLFPPKPKDTLMISRTPEVTCVVVDVSHEDPEVKFNWYVDGVEVHNAKTKPREEQYNSTYRVVSVLTVLHQDWLNGKEYKCKVSNKALPVPIEKTISKAKGQPREPQVYTLPPSREEMTKNQVSLTCLVKGFYPSDIAVEWESNGQPENNYKTTPPVLDSDGSFFLYSKLTVDKSRWQQGNVFSCSVMHEALHNHYTQKSLSLSPGK
- inhibition of GDF-11 activity, in words (GDF11 [9]): potent inhibitor
- affinity for activin, in words (activin [7]): low nanomolar to high picomolar range
- Koff (1/s), GDF11 (GDF11 [10]): 0.000113 s⁻¹
- affinity for GDF11, in words (GDF11 [8]): low nanomolar to high picomolar range
- Koff (1/s), GDF8 (GDF8 [11]): 3.45e-05 s⁻¹
- inhibition of GDF-8 activity, in words (GDF8 [12]): potent inhibitor
- Koff (1/s), Activin A (Activin A [13]): 0.000159 s⁻¹
- Kon (1/Ms), Activin A (Activin A [13]): 5.94e+06 M⁻¹ s⁻¹
- inhibition of activin A activity, in words (Activin A [14]): potent inhibitor

B5: K74A: soluble ActRIIB-Fc variant K74A, data from WO2006/012627 (protein)
chain: SGRGEAETRECIYYNANWELERTNQSGLERCEGEQDKRLHCYASWANSSGTIELVAKGCWLDDFNCYDRQECVATEENPQVYFCCCEGNFCNERFTHLPEA
modifications: left off: a dimerising Fc or GST
- GDF11 binding relative to WT (GDF11 [15]): +++++ (~40x increased binding)
